{
  "source": "patent US9051591B2",
  "about": "“Bacterium of enterobacteriaceae family producing L-aspartic acid or L-aspartic acid-derived metabolites and a method for producing L-aspartic acid or L-aspartic acid-derived metabolites” (AJINOMOTO CO., INC., priority 2010, dated 2015)",
  "key": {"[1]": {"target": "T1, Polaromonas sp. aspartate dehydrogenase (Polaromonas sp., UniProt Q126F5)", "T1 sequence (Q126F5 1-267)": "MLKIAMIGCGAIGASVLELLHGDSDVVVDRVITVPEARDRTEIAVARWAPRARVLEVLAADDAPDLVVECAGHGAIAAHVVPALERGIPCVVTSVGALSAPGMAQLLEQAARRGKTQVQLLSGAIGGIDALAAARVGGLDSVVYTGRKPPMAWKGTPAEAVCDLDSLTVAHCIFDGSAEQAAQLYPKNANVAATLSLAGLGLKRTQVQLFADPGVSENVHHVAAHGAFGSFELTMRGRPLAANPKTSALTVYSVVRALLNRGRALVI", "test": "Regulatory properties of the ADH", "settings": "addition of 1 mM, 29° C., pH 9.8"}, "ADH (Polaromonas sp.)": {"target": "T2, ADH (Polaromonas sp.) (Polaromonas sp., UniProt Q126F5)", "T2 sequence (Q126F5 1-267)": "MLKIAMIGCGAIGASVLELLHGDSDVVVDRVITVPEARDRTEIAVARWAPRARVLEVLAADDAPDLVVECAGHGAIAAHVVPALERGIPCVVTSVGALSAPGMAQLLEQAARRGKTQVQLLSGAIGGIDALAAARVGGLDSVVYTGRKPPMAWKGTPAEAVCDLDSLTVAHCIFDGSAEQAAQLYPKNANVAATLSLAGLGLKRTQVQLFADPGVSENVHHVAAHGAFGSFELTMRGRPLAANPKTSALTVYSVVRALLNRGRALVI", "test": "Screening of substrate specificity, ADH", "settings": "relative to oxaloacetate; 20 mM substrate, […] NADH, pH 9"}, "[2]": {"target": "T3, purified ADH (Polaromonas sp.) (Polaromonas sp., UniProt Q126F5)", "T3 sequence (Q126F5 1-267)": "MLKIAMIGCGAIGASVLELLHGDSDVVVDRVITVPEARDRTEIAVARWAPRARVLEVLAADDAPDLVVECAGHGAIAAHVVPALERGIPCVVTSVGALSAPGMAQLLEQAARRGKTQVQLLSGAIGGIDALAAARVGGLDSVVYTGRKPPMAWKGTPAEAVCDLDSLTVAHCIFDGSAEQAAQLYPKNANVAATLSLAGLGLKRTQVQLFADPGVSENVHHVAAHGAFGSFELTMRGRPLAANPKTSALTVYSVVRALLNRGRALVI", "test": "Screening of alternative substrates for purified ADH", "settings": "10 mM, 29° C.; for ability to replace oxaloacetate in forward reaction: […] NADH, 50 mM NH4Cl; for ability to replace aspartic acid in reverse reaction: 1 mM NAD^+"}, "ADH-Re": {"system": "ADH-Re", "test": "Screening of substrate specificity, ADH-Re", "settings": "relative to oxaloacetate; 20 mM substrate, […] NADH, pH 9"}, "[3]": {"target": "T4, Ralstonia eutropha ADH-Re (Cupriavidus necator, UniProt Q0K391)", "T4 sequence (Q0K391 with tags, fused parts or gaps)": "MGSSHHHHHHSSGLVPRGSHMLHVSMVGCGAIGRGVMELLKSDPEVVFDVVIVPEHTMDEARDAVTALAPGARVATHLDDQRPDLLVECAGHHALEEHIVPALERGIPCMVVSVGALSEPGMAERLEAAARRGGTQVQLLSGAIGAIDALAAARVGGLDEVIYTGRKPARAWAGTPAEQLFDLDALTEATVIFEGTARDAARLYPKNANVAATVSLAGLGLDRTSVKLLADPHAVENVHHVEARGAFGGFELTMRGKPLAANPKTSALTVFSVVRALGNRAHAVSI", "settings": "amination; summary range over Hill and Michaelis-Menten fits"}, "[4]": {"substrate": "NC(=O)c1ccc[n+]([C@@H]2O[C@H](COP(=O)([O-])OP(=O)(O)OC[C@H]3O[C@@H](n4cnc5c(N)ncnc54)[C@H](O)[C@@H]3O)[C@@H](O)[C@H]2O)c1", "test": "purified protein, by the assay type"}, "[5]": {"substrate": "O=C(O)CC(=O)C(=O)O", "test": "purified protein, by the assay type", "settings": "other: Oxaloacetate reductive amination; Michaelis-Menten plots"}, "[6]": {"substrate": "N[C@@H](CC(=O)O)C(=O)O", "test": "purified protein, by the assay type", "settings": "other: Aspartate oxidative deamination; Michaelis-Menten plots"}, "[7]": {"settings": "other: Aspartic acid oxidative deamination, Michaelis-Menten plots"}, "[8]": {"settings": "other: Aspartate oxidative deamination"}, "[9]": {"settings": "other: Aspartate oxidative deamination, Michaelis-Menten plots"}, "[10]": {"settings": "other: Aspartic acid oxidative deamination"}},
  "data": [
    {"molecule": "O=C(O)CC(O)C(=O)O", "note": "(stereo not drawn) [malate]", "values": [
      {"measurement": "effect on ADH activity in forward and reverse reactions", "setting": "[1]", "result": "not significantly affected"}
    ]},
    {"molecule": "CC(=O)C(=O)O", "note": "[pyruvate]", "values": [
      {"measurement": "Amination activity, ADH", "setting": "ADH (Polaromonas sp.)", "result": "na (no activity (<0.2%))"},
      {"measurement": "ability to replace oxaloacetate in forward reaction", "setting": "[2]", "result": "No activity"}
    ]},
    {"molecule": "CC(C)[C@H](N)C(=O)O", "note": "[valine]", "values": [
      {"measurement": "ability to replace aspartic acid in reverse reaction", "setting": "[2]", "result": "No activity"}
    ]},
    {"molecule": "CCC(N)C(=O)O", "note": "(stereo not drawn) [α-aminobutyrate]", "values": [
      {"measurement": "ability to replace aspartic acid in reverse reaction", "setting": "[2]", "result": "No activity"}
    ]},
    {"molecule": "CCC(=O)C(=O)O", "note": "[α-ketobutyrate]", "values": [
      {"measurement": "Amination activity, ADH", "setting": "ADH (Polaromonas sp.)", "result": "na (no activity (<0.2%))"},
      {"measurement": "Amination activity, ADH-Re", "setting": "ADH-Re", "result": "na (no activity (<0.2%))"},
      {"measurement": "ability to replace oxaloacetate in forward reaction", "setting": "[2]", "result": "No activity"}
    ]},
    {"molecule": "O=C(O)CCC(=O)C(=O)O", "note": "[α-ketoglutarate]", "values": [
      {"measurement": "Amination activity, ADH-Re", "setting": "ADH-Re", "result": "na (no activity (<0.2%))"}
    ]},
    {"molecule": "NADPH", "values": [
      {"measurement": "Km", "setting": "[3]", "result": "390 to 900", "unit": "µM"}
    ]},
    {"molecule": "Polaromonas sp. ADH (Polaromonas sp. JS666) (protein) MLKIAMIGCGAIGASVLELLHGDSDVVVDRVITVPEARDRTEIAVARWAPRARVLEVLAADDAPDLVVECAGHGAIAAHVVPALERGIPCVVTSVGALSAPGMAQLLEQAARRGKTQVQLLSGAIGGIDALAAARVGGLDSVVYTGRKPPMAWKGTPAEAVCDLDSLTVAHCIFDGSAEQAAQLYPKNANVAATLSLAGLGLKRTQVQLFADPGVSENVHHVAAHGAFGSFELTMRGRPLAANPKTSALTVYSVVRALLNRGRALVI", "values": [
      {"measurement": "Km", "setting": "[4]; [7]", "result": "424 ± 10", "unit": "µM"},
      {"measurement": "Vmax", "setting": "[4]; [7]", "result": 32, "unit": "µmol/min/mg"},
      {"measurement": "kcat", "setting": "[4]; [7]", "result": "14.68 ± 0.1", "unit": "s⁻¹"},
      {"measurement": "Km", "setting": "[5]", "result": "2200 ± 300", "unit": "µM"},
      {"measurement": "Vmax", "setting": "[5]", "result": 74, "unit": "µmol/min/mg"},
      {"measurement": "kcat", "setting": "[5]", "result": "33.8 ± 1.5", "unit": "s⁻¹"}
    ]},
    {"molecule": "Bradyrhizobium japonicum ADH-Bj (Bradyrhizobium diazoefficiens USDA 110) (protein) MGSSHHHHHHSSGDRRWKVMTDQTASSELRVAIAGLGSIGTKIAAALDQGEGLTLSAVAVRDPAKHQAFLNGLRRPPQVLPIDQLGEAADIVVECAPSSQLRAIVEPAVKRGKAAVVVSVGGLLDNFDLVDLARANGGRIIVPTGALIGLDAVNAAVIGTIHSVKMVTRKPIDGLKGAPFIVHNNIDIDTLREPLKLFEGTAREAAKGFPANLNVAVALSLAGVGPDRTSVQIWADPTVTRNVHRIEVEADSARFSMSIENIPSENPKTGLITALSVIALLRKQRATLCVGT", "values": [
      {"measurement": "Km", "setting": "[4]; [8]", "result": "10000 ± 3000", "unit": "µM"},
      {"measurement": "Vmax", "setting": "[4]; [8]", "result": 6.5, "unit": "µmol/min/mg"},
      {"measurement": "kcat", "setting": "[4]; [8]", "result": "3.33 ± 0.5", "unit": "s⁻¹"},
      {"measurement": "kcat/Km", "setting": "[4]; [8]", "result": 333, "unit": "M⁻¹ s⁻¹"}
    ]},
    {"molecule": "Ralstonia eutropha ADH-Re (Cupriavidus necator H16) (protein) MGSSHHHHHHSSGLVPRGSHMLHVSMVGCGAIGRGVMELLKSDPEVVFDVVIVPEHTMDEARDAVTALAPGARVATHLDDQRPDLLVECAGHHALEEHIVPALERGIPCMVVSVGALSEPGMAERLEAAARRGGTQVQLLSGAIGAIDALAAARVGGLDEVIYTGRKPARAWAGTPAEQLFDLDALTEATVIFEGTARDAARLYPKNANVAATVSLAGLGLDRTSVKLLADPHAVENVHHVEARGAFGGFELTMRGKPLAANPKTSALTVFSVVRALGNRAHAVSI", "values": [
      {"measurement": "Km", "setting": "[4]; [9]", "result": "1700 ± 400", "unit": "µM"},
      {"measurement": "Vmax", "setting": "[4]; [9]", "result": 37, "unit": "µmol/min/mg"},
      {"measurement": "kcat", "setting": "[4]; [9]", "result": "18.7 ± 1.5", "unit": "s⁻¹"},
      {"measurement": "Km", "setting": "[6]", "result": "13000 ± 3000", "unit": "µM"},
      {"measurement": "Vmax", "setting": "[6]", "result": 23, "unit": "µmol/min/mg"},
      {"measurement": "kcat", "setting": "[6]", "result": "11.5 ± 1", "unit": "s⁻¹"},
      {"measurement": "kcat/Km", "setting": "[6]", "result": 833, "unit": "M⁻¹ s⁻¹"},
      {"measurement": "Km", "setting": "[5]", "result": "3300 ± 400", "unit": "µM"},
      {"measurement": "kcat", "setting": "[5]", "result": "58.3 ± 2.33", "unit": "s⁻¹"}
    ]},
    {"molecule": "Rhodopseudomonas palustris ADH1-Rp (Rhodopseudomonas palustris HaA2) (protein) MRSGRAPQRVAIAGLGAIGKAIARELDRGLDGLTLGAVASGDPEKHRAFLDGLRTTPPVVPLDQLHAHADLVIEAAPSRLLRAIVEPFVSRGRTAIVLSAAALLQNEDLIDLANLNGGQIIVPTGALIGLDAVTAAAVGTIHSVRMITRKPVDGLRGAPFIVDNGIDLDGLREPLKLFEGTAREAGKGFPANLNVAVALSLAGIGPDRTMVEIWADPGVTRNTHRIEVDADSARFAMTIENVPSDNPRTGLITPLSVIALLRKQSAALRVGT", "values": [
      {"measurement": "Km", "setting": "[4]; [10]", "result": "7000 ± 300", "unit": "µM"},
      {"measurement": "Vmax", "setting": "[4]; [10]", "result": 3.11, "unit": "µmol/min/mg"},
      {"measurement": "kcat", "setting": "[4]; [10]", "result": "1.58 ± 0.0333", "unit": "s⁻¹"},
      {"measurement": "kcat/Km", "setting": "[4]; [10]", "result": "227 ± 15", "unit": "M⁻¹ s⁻¹"}
    ]}
  ]
}
